# Test results published in paper PMC7084690, “N-terminal Backbone Pairing Shifts in CCL5-^12AAA^14 Dimer Interface: Structural Significance of the FAY Sequence” (International Journal of Molecular Sciences, 2020).
# Substitutions are numbered along the chain they refer to. Names may count otherwise.
# T1: CCL5-F12A (human), P13501
# T1 chain: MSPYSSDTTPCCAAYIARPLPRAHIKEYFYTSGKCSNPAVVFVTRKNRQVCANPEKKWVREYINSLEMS
# B1: CCL5-F12A, P13501 24-91 (natural protein)
# chain: T1 chain
# B2: human CC-type chemokine ligand 5 (CCL5) (natural protein)
# chain: T1 chain with A13F
# notes: starting Met residue (M0) that precedes residues 1-68 of the mature CCL5; CCL5 (RANTES), human, residues 1-68 of the mature CCL5; numbers count on: the mature protein; 15N-labelled for the NMR experiments; vector pET43.1a(+); also called RANTES; native CCL5
# B3: CCL5-Y14A (natural protein, human)
# chain: T1 chain with A13F, Y15A
# notes: starting Met residue (M0) that precedes residues 1-68 of the mature CCL5; CCL5 (RANTES), human, residues 1-68 of the mature CCL5, with Y14A; numbers count on: the mature protein; 15N-labelled for the NMR experiments
# B4: CCL5-12AAA14 (natural protein, human)
# chain: T1 chain with Y15A
# notes: starting Met residue (M0) that precedes residues 1-68 of the mature CCL5; numbers count on: the mature protein; 15N- or 15N,13C-labelled for the NMR experiments; In the crystal the first five N-terminal residues were not modelled; also called 12AAA14 mutant
# What was measured:
# [1] = target: T1, CCL5-F12A (human), P13501; assay: NMR titration; pH titration followed by 1H,15N-HSQC; this point pH 3.2; 0.2 mM 15N-labelled protein, 25 mM sodium acetate, 150 mM NaCl, 10% D2O, 298 K; monomer to dimer; details: remark: other sources report otherwise
# [2] = target: the molecule itself; assay: as above
# [3] = target: the molecule itself; assay: NMR titration; pH titration followed by 1H,15N-HSQC; this point pH 5.0 (for the wild type maintained until pH 6.0); 0.2 mM 15N-labelled protein, 25 mM sodium acetate, 150 mM NaCl, 10% D2O, 298 K; dimers to soluble oligomers, read from the loss of resonance intensity
# [4] = target: the molecule itself; assay: NMR backbone relaxation (15N-R1, 15N-R2, 1H-15N NOE); pH 3.2, 298 K, 600 MHz, in the absence or presence of 180 mM ammonium sulfate; oligomeric state from R1, R2 and the R2/R1 ratio; monomer to dimer
binder,measurement,setting,value
B1,stoichiometry N,[1],2
B2,stoichiometry N,[2],2
B3,binding result,[3],binds
B4,stoichiometry N,[4],2
